# Test results: publication PMC2698432
# T1: SarZ (Staphylococcus aureus, UniProt Q5HDG9 1-148)
# T1 sequence: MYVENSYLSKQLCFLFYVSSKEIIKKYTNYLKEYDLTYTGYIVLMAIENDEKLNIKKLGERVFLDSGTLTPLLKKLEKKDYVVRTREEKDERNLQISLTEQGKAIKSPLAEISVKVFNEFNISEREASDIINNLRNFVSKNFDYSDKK
# B1: ohr promoter fragment (ohr1/ohr2) (dsDNA)
# DNA 1: TTTTCGAATGGGTAAAGCATAAATGTATTTTAAATTAGGAGGTTATAAGT
# DNA 2: ACTTATAACCTCCTAATTTAAAATACATTTATGCTTTACCCATTCGAAAA
# What was measured:
# [1] = target: SarZ C13S (Staphylococcus aureus, UniProt Q5HDG9 1-148, C13S); test: EMSA
# [2] = target: T1, SarZ; test: EMSA
binder,measurement,setting,value
B1,binding result,[1],binds
same,binding result,[2],binds
